In experiment [1] the target is T1, human interleukin 12 (human, UniProt P29459 23-219; P29460 23-328).
T1 construct: heterodimer of p35 and p40 linked by a disulfide bridge; also called hIL-12; IL-12
T1 sequence (looked up) 1: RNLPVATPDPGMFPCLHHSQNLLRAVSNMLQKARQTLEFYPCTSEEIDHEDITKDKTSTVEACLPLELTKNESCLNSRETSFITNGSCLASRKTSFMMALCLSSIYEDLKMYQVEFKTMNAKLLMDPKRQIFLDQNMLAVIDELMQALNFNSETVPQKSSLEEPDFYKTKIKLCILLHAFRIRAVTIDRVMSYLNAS
T1 sequence (looked up) 2: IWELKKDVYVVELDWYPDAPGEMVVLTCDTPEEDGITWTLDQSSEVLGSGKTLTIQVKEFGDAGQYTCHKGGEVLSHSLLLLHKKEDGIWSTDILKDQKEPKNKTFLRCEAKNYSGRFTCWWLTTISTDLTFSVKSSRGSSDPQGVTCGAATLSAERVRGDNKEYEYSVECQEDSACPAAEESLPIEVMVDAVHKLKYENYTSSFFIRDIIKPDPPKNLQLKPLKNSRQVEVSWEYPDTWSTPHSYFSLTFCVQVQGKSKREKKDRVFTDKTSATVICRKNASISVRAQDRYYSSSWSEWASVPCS
Briefly: SPR (BIAcore).

Experiment [2] concerns the target T1, human interleukin 12. The experiment is described as follows: cell-based or functional assay.
The target in experiment [3] is T1, human interleukin 12. Briefly: RB assay (IL-12 receptor binding).
Experiment [4] addresses T2, human interleukin 12 (p70 heterodimer of p35 and p40) (human, UniProt P29459 23-219; P29460 23-328).
T2 construct: Recombinant human IL-12; also called hIL-12; IL-12
T2 sequence (looked up) 1: T1 sequence (looked up) 1
T2 sequence (looked up) 2: T1 sequence (looked up) 2
The experiment is described as follows: SPR (BIAcore), off-rate.

The target of experiment [5] is T2, human interleukin 12 (p70 heterodimer …). Briefly: SPR (BIAcore), off-rate. The source holds these as a separate data set.
Experiment [6] shares this target. Briefly: SPR (BIAcore), off-rate. This is another data set of the same source.
Experiment [7] shares this target. Briefly: SPR (BIAcore), off-rate. This is another data set of the same source.
Experiment [8] has the same target. The experiment is described as follows: SPR (BIAcore), off-rate. The source holds these as a separate data set.
Experiment [9] has the same target. Briefly: SPR (BIAcore), off-rate. The source holds these as a separate data set.
The target is the same in experiment [10]. The experiment is described as follows: surface plasmon resonance (BIAcore).
The target is the same in experiment [11]. The experiment is described as follows: SPR (BIAcore), off-rate. This is another data set of the same source.
In experiment [12] the target is T3, human interleukin 12 (recombinant human IL-12, p70 heterodimer) (human, UniProt P29459 23-219; P29460 23-328).
T3 sequence (looked up) 1: T1 sequence (looked up) 1
T3 sequence (looked up) 2: T1 sequence (looked up) 2
The experiment is described as follows: cell-based or functional assay.

In experiment [13] the target is T3, human interleukin 12 (recombinant human …). Briefly: SPR (BIAcore), off-rate from human IL-12.
For experiment [14] the target is unchanged. Briefly: cell-based or functional assay. The source holds these as a separate data set.

Residue numbers refer to the chain shown, from its start. Numbers in names are those of the source. Where “and” joins values, the source holds several entries; their conditions need not be identical. Equal values may be shown once.

B1: 136-14 (antibody, V domains shown)
VH: QVQLVQSGGGVVQPGRSLRLSCAASGFTFSSYGMHWVRQAPGKGLEWVAFIRYDGSNKYYADSVKGRFTISRDNSKNTLYLQMKSLRAEDTAVYYCTTHGSHDNWGQGTMVTVSS
VL: SYVLTQPPSVSGTPGQRVTISCSGGRSNIGSNTVKWYQQLPGTAPKLLIYGNDQRPSGVPDRFSGSKSGTSASLAITGVQAEDEADYYCQTYDRGFTGSRVFGTGTKVTVL
Turning to B1, the koff in the experiment with human interleukin 12 [1] came out at 0.0011 s⁻¹. The “PHA assay IC50” value with human interleukin 12 [2] worked out at 100 nM. In the experiment with human interleukin 12 [3], this molecule displayed an IC50 of 0.3 nM.

B2: Y61 human anti-hIL-12 antibody (antibody, V domains shown)
VH: B1 VH with T97K
VL: SYVLTQPPSVSGTPGQRVTISCSGGRSNIGSNTVKWYQQLPGTAPKLLIYGNDQRPSGVPDRFSGSKSGTSASLAITGVQAEDEADYYCQSYDRGTHPALLFGTGTKVTVLG
B2: the koff in experiment [4] is 0.000204 s⁻¹ and 0.000206 s⁻¹ and 0.000151 s⁻¹ and 0.000178 s⁻¹; in [5], 0.000403 s⁻¹; in experiment [6], 0.000397 s⁻¹ and 0.000375 s⁻¹ and 0.000255 s⁻¹ and 0.000143 s⁻¹; in experiment [7] it was 0.000168 s⁻¹ and 0.000337 s⁻¹ and 0.000178 s⁻¹; in experiment [8], 0.000211 s⁻¹ and 0.000229 s⁻¹ and 0.000241 s⁻¹; in experiment [9], 0.00031 s⁻¹ and 0.000385 s⁻¹. For the same molecule, the koff was approximately 0.0002 s⁻¹ in experiment [10]; 0.000215 s⁻¹ and 0.000297 s⁻¹ in [11].

B3: 136-15 (antibody, V domains shown)
VH: B1 VH with T97K
VL: B2 VL with G25S, S91T, R94K, T96F, H97T, P98G, A99S, L100S, L101V
On to B3, for which the “PHA assay IC50 (M) p70:p40 1:0” value in [12] is 2e-09 M.

B4: 73-B1 (antibody, V domains shown)
VH: B1 VH with H99S, H102Y, N104Y
VL: B2 VL with Q90H, R94S, G95D, T96F, H97T, P98G, A99S, L100R, L101V
In the experiment with human interleukin 12 [1], B4 showed a koff of 0.00325 s⁻¹. In addition, the IC50 in the experiment with human interleukin 12 [3] was more than 10 nM.

B5: 136-21 (antibody, V domains shown)
VH: B1 VH
VL: B1 VL with T91S, R94N
For B5, the koff with human interleukin 12 [1] is 0.00042 s⁻¹. Moreover, the IC50 with human interleukin 12 [3] came to 2 nM.

B6: 136-10 (antibody, V domains shown)
VH: B1 VH with N104D
VL: B1 VL with T91S
Consider B6, for which the koff with human interleukin 12 [1] is 0.0014 s⁻¹. Moreover, in the experiment with human interleukin 12 [3], the IC50 stood at 2 nM.

B7: 136-15M1 (antibody, V domains shown)
VH: B1 VH with T97A, T98K
VL: B2 VL with T96F, H97T, P98G, A99S, L100R, L101V
In the case of B7, in the experiment with human interleukin 12 [3], the IC50 stood at 0.4 nM.

B8: 73-C1 (antibody, V domains shown)
VH: B1 VH with H99S, H102Y, N104Y
VL: B2 VL with Q90H, R94S, G95R, T96F, H97T, P98G, A99S, L100R, L101V
Molecule B8 showed a koff with human interleukin 12 [1] of 0.00271 s⁻¹. The concentration for half-maximal inhibition (IC50) in the experiment with human interleukin 12 [3] was more than 10 nM.

B9: Y61-L50Y* IgG (antibody, V domains shown)
VH: B1 VH with T97K
VL: QSVLTQPPSVSGAPGQRVTISCSGSRSNIGSNTVKWYQQLPGTAPKLLIYYNDQRPSGVPDRFSGSKSGTSASLAITGLQAEDEADYYCQSYDRGTHPALLFGTGTKVTVL
Take B9: in experiment [13], the koff worked out at 6.98e-05 s⁻¹. Also, in experiment [14], the “IFN gamma IC50” value was found to be 0.03 nM and the “PHA assay IC50” value was determined as 0.02 nM.

B10: 136-17 (antibody, V domains shown)
VH: B1 VH
VL: B1 VL with T91S, R94W, G95N
In the experiment with human interleukin 12 [1], B10 registered a koff of 2.9e-05 s⁻¹. In addition, the “PHA assay IC50” value with human interleukin 12 [2] stood at 7 nM. The same molecule displayed an IC50 with human interleukin 12 [3] of 2 nM.

B11: 136-16 (antibody, V domains shown)
VH: B1 VH
VL: B1 VL with T91S, G95R
Turning to B11, the koff in the experiment with human interleukin 12 [1] was 0.00061 s⁻¹. Further, in the experiment with human interleukin 12 [2], the “PHA assay IC50” value turned out to be 5 nM. The IC50 with human interleukin 12 [3] is 0.3 nM.

B12: 73-B6 (antibody, V domains shown)
VH: B1 VH with H99S, H102Y, N104Y
VL: B2 VL with Q90H, R94N, G95R, T96F, H97T, P98G, A99S, L100R, L101V
In the case of B12, in the experiment with human interleukin 12 [1], the koff is 0.00251 s⁻¹. In addition, the IC50 with human interleukin 12 [3] is more than 10 nM.

B13: Y61 IgG (antibody, V domains shown)
VH: B1 VH with T97K
VL: B2 VL
notes: IgG
Take B13: in experiment [12], the “PHA assay IC50 (M) p70:p40 1:0” value came out at 1.8e-10 M and the “PHA assay IC50 (M) p70:p40 1:50” value was 1.8e-10 M. In addition, the koff in [13] turned out to be 0.00015 s⁻¹. Also, the “PHA assay IC50” value in [14] worked out at 0.13 nM.

B14: SEQ ID NO: 531 (Y61, A at L53) (antibody, V domains shown)
VH: B1 VH with T97K
VL: B2 VL with Q54A
In experiment [11], B14 returned a koff of 0.000554 s⁻¹.

B15: SEQ ID NO: 527 (Y61, Y at L53) (antibody, V domains shown)
VH: B1 VH with T97K
VL: B2 VL with Q54Y
In [11], B15 yielded a koff of 0.000733 s⁻¹.

B16: SEQ ID NO: 533 (Y61, P at L53) (antibody, V domains shown)
VH: B1 VH with T97K
VL: B2 VL with Q54P
In experiment [11], B16 gave a koff of 0.000974 s⁻¹.

B17: SEQ ID NO: 532 (Y61, I at L53) (antibody, V domains shown)
VH: B1 VH with T97K
VL: B2 VL with Q54I
In turn, B17 registered a koff in experiment [11] of 0.000855 s⁻¹.

B18: SEQ ID NO: 526 (Y61, S at L53) (antibody, V domains shown)
VH: B1 VH with T97K
VL: B2 VL with Q54S
Turning to B18, in experiment [11], the koff worked out at 0.000866 s⁻¹.

B19: J695 (Y61-L94Y-L50Y IgG*) (antibody, V domains shown)
VH: B1 VH with Q6E, K84N, T97K
VL: B2 VL with S1Q, Y2S, T13A, G25S, G51Y, V79L, G95Y
notes: also called ABT-874
B19: the koff in experiment [13] came to 5.14e-05 s⁻¹.

B20: SEQ ID NO: 528 (Y61, R at L53) (antibody, V domains shown)
VH: B1 VH with T97K
VL: B2 VL with Q54R
In turn, B20 returned a koff in experiment [11] of 0.000614 s⁻¹.

B21: SEQ ID NO: 530 (Y61, T at L53) (antibody, V domains shown)
VH: B1 VH with T97K
VL: B2 VL with Q54T
In [11], B21 registered a koff of 0.000834 s⁻¹.

B22: Joe9 wt IgG1 (antibody, V domains shown)
VH: not shown
VL: SYVLTQPPSVSGTPGQRVTISCSGGRSNIGSNTVKWYQQLPGTAPKLLIYGNDQRPSGVPDRFSGSKSGTSASLAITGVQAEDEADYYCQSYDSSLRG
For B22, the “PHA assay IC50” value in the experiment with human interleukin 12 [2] amounted to 500 nM.

For the origin of these results see patent US20120219562A1 (AbbVie / Abbott, published 2012).
